The text below walks through data of the supplement of paper PMC10567573.

± gives the standard deviation.

The data set in a line: protein stability index of a GFP-peptide fusion (GPS, HEK-293T) (PSI 1-6); higher = more stable. Conditions: c terminus: a fixed tail appended.
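Further: 24-mer peptide tiles fused after GFP, lentivirally expressed, FACS-sorted into six equal bins by GFP/DsRed ratio, decoded by Illumina sequencing, PSI is the read-weighted mean bin number.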

For PGPVCQPPVSQSRSLFSSVPSKPP [ANKRD40], the protein stability index runs as follows: (treatment: DMSO) 4.34 ± 0.39; (treatment: MLN4924 1 uM, 8 h) 4.54 ± 0.48. For the sequence PISAIRHEGKTDSERTDTAADGET [EPB41L3], the protein stability index was determined as 5.71 ± 0.19 (treatment: DMSO) and 5.74 ± 0.078 (treatment: MLN4924 1 uM, 8 h).

The sequence PKGRFERKRNPSRKKQHICDECGK [ZNF24] registered a protein stability index (treatment: DMSO) of 3.82 ± 0.49.

In the case of PKVSDQALVSAHSEWQRKLEAAEA [DMRTC1], the protein stability index (treatment: DMSO) worked out at 4.54 ± 0.23 and the protein stability index (treatment: MLN4924 1 uM, 8 h) was 4.66 ± 0.29.

As to PLLKMDLNSEQAEQLERINDALSC [FAM98B], the protein stability index came to 4.29 ± 0.24 (treatment: DMSO) and 4.36 ± 0.1 (treatment: MLN4924 1 uM, 8 h). The corresponding values for PLLSNTFTETNNHWPQGPTGPPGP [EMID1] are 3.53 ± 0.33 and 4.08 ± 0.14. The matching figures for PLSSQPQAIVTEDKTDISSGRARQ [MLH1]: 4.99 ± 0.14 and 5.15 ± 0.23. In turn, PLVEKKRRARINESLQELRLLLAG [HES6] registered a protein stability index (treatment: DMSO) of 2.63 ± 0.6 and a protein stability index (treatment: MLN4924 1 uM, 8 h) of 2.75 ± 0.73. In the case of PLVLTEVLFNEKIREQIKKYRRHF [EIF5], the protein stability index (treatment: DMSO) came out at 2.31 ± 0.35 and the protein stability index (treatment: MLN4924 1 uM, 8 h) was found to be 2.28 ± 0.33.

As to PMKKNNNLYSWDDFMELGRSIPDT [ACSBG2], the protein stability index is, setting by setting: (treatment: DMSO) 3.74 ± 0.24; (treatment: MLN4924 1 uM, 8 h) 3.77 ± 0.3. As for PMVLMIIVMCVQIKCFHEIITIGY [CDS2], the protein stability index runs as follows: (treatment: DMSO) 3.01 ± 0.43; (treatment: MLN4924 1 uM, 8 h) 3.14 ± 0.66. The matching figures for PNALIASLALGDLIYVVIDLPINV [EDNRA]: 3.12 ± 0.42 and 3.03 ± 0.35. The corresponding values for PPENSDSGTGKKEKEKKNRKGKDK [EIF5] are 5.58 ± 0.21 and 5.48 ± 0.28. The corresponding values for PPLSGALASITETIQVHRRYWRSL [HDAC6] are 2.99 ± 0.33 and 3.15 ± 0.4. Consider PPPLPNHKYNTTSTSYSPLASLPL [PLAGL1], for which the protein stability index by setting is: (treatment: DMSO) 3.29 ± 0.17; (treatment: MLN4924 1 uM, 8 h) 3.33 ± 0.091. The matching figures for PPPPPLPDPTPPEPEEEILGSDDE [SRPK2]: 5.51 ± 0.23 and 5.63 ± 0.19.

On to PPRREPLPSRRDVYLSPRDDGYST [RBMX], for which the protein stability index turned out to be 4.09 ± 0.16 (treatment: DMSO) and 4.23 ± 0.29 (treatment: MLN4924 1 uM, 8 h). On to PSGSSGSLSTSSSSSPPGTPSPAD [CEBPB], for which the protein stability index is 5.53 ± 0.31 (treatment: DMSO) and 5.46 ± 0.069 (treatment: MLN4924 1 uM, 8 h). For the sequence PSPPAAPSVADNLLASSDAALSAS [SERTAD1], the protein stability index runs as follows: (treatment: DMSO) 5.25 ± 0.21; (treatment: MLN4924 1 uM, 8 h) 5.25 ± 0.094. As to PSSFDPSMLLQRFSVAPHETQTQR [RNF180], the protein stability index (treatment: DMSO) turned out to be 4.12 ± 0.14 and the protein stability index (treatment: MLN4924 1 uM, 8 h) worked out at 3.95 ± 0.13. On to PTKADTEKWAEGGGHSRERADEPQ [CHGB], for which the protein stability index (treatment: DMSO) worked out at 5.46 ± 0.32 and the protein stability index (treatment: MLN4924 1 uM, 8 h) was 5.36 ± 0.19.

Turning to PTTGRVYESDSSNHCMLSPSSSGH [C18orf25], the protein stability index is, setting by setting: (treatment: DMSO) 4.24 ± 0.24; (treatment: MLN4924 1 uM, 8 h) 4.52 ± 0.052. Regarding PTYKGLLMSLQNQLKESKSKIDAL [CEP70], the protein stability index is 2.45 ± 0.22 (treatment: DMSO) and 2.86 ± 0.19 (treatment: MLN4924 1 uM, 8 h). The matching figures for PVDSVLFYAITTLHNLLLHQEGAK [CTNNB1]: 2.81 ± 0.48 and 2.71 ± 0.17.

Take PVHIHPAFARQAAQEPSAVPRAGP [FOXJ1]: the protein stability index by setting is: (treatment: DMSO) 4.45 ± 0.088; (treatment: MLN4924 1 uM, 8 h) 4.22 ± 0.15.

Consider PVSASRSSLDLSYYPTSSSTSFMS [EMD], for which the protein stability index stood at 3.38 ± 0.21 (treatment: DMSO) and 3.38 ± 0.13 (treatment: MLN4924 1 uM, 8 h).

On to QARLEEQQRLAHLEDKLRLLAQAR [LRRC45], for which the protein stability index runs as follows: (treatment: DMSO) 3.37 ± 0.61; (treatment: MLN4924 1 uM, 8 h) 3.32 ± 0.35. The corresponding values for QARRQQVKQYLSTTLGPKLASQAL [TFE3] are 2.95 ± 0.51 and 2.9 ± 0.23. The matching figures for QASVSCALEALEPFWEVLVRSTET [HDAC6]: 2.64 ± 0.57 and 2.46 ± 1.1. The corresponding values for QDRFRIELSEEGAEGRVVGRKDIT [MOSPD3] are 4.91 ± 0.23 and 5.1 ± 0.31. Take QEIATYRRLLEGEDAHLTQYKKEP [KRT17]: the protein stability index reads like this: (treatment: DMSO) 4.68 ± 0.19; (treatment: MLN4924 1 uM, 8 h) 4.82 ± 0.18.

As for QETPYLVKLPLPAERVTLADFKGV [DVL3], the protein stability index turned out to be 3.25 ± 0.3 (treatment: DMSO) and 3.49 ± 0.18 (treatment: MLN4924 1 uM, 8 h). The matching figures for QGEAFQRALESELQQLRARLQGLE [PBXIP1]: 3.1 ± 0.17 and 3.23 ± 0.28. As for QGEQLEVPERLLVVLDMEEGTLGY [SPSB2], the protein stability index is, setting by setting: (treatment: DMSO) 2.86 ± 0.34; (treatment: MLN4924 1 uM, 8 h) 3.06 ± 0.24.

With QGFSYSKSNGRGGSQAGGSGSAGQ [MYOZ1], the protein stability index reads like this: (treatment: DMSO) 4.76 ± 0.18; (treatment: MLN4924 1 uM, 8 h) 5.02 ± 0.16. The matching figures for QHKTCMLNATSKFMEFYQDVKDWW [EDNRA]: 2.6 ± 0.74 and 2.89 ± 0.36. The corresponding values for QIRDWRGGRLENQKPRGLEGGVLR [ZSWIM9] are 3.3 ± 0.54 and 3.57 ± 0.15. The matching figures for QIVQLTQQVDTNISVILPTVHEVD [DENND6A]: 3.07 ± 0.35 and 3.3 ± 0.37. As for QKLQDVLHEALQDYEAGQHMEDPR [ESRRG], the protein stability index is 4.72 ± 0.34 (treatment: DMSO) and 5.13 ± 0.26 (treatment: MLN4924 1 uM, 8 h). For QKLYVRLFQRKLSWIKMTKLEYEE [FAN1], the protein stability index is 2.63 ± 1.1 (treatment: DMSO) and 2.44 ± 0.6 (treatment: MLN4924 1 uM, 8 h). The corresponding values for QLLFVIFLLLYLFTLGTNAIIIST [OR10K2] are 3.18 ± 0.37 and 3.19 ± 0.23. In the case of QLQDFNIPQAGGWGPWGPWGDCSR [ADAMTS4], the protein stability index amounted to 2.56 ± 0.59 (treatment: DMSO) and 3 ± 0.8 (treatment: MLN4924 1 uM, 8 h). Consider QLQELLHHCDDHLSLYQLSLERGT [RSAD1], for which the protein stability index reads like this: (treatment: DMSO) 2.34 ± 0.24; (treatment: MLN4924 1 uM, 8 h) 2.58 ± 0.34.

As for QLSAPHCKKLSLELGGKNPAIIFE [ALDH8A1], the protein stability index amounted to 2.8 ± 0.26 (treatment: DMSO) and 2.9 ± 0.43 (treatment: MLN4924 1 uM, 8 h). The corresponding values for QLVLAYDYSREVNTTEELEALITD [FEM1A] are 3.53 ± 0.28 and 3.8 ± 0.34.

Consider QMAEKNRRDAETWFLSKTEELNKE [KRT16], for which the protein stability index reads like this: (treatment: DMSO) 5.02 ± 0.57; (treatment: MLN4924 1 uM, 8 h) 4.81 ± 0.35.

As for QNECQVLKLLNHPNVIEYYENFLE [NEK8], the protein stability index is, setting by setting: (treatment: DMSO) 2.56 ± 0.12; (treatment: MLN4924 1 uM, 8 h) 2.67 ± 0.27. QQPSKHRTDEELQPPTTTVARSGT [PLK2]: the protein stability index reads like this: (treatment: DMSO) 5.47 ± 0.15; (treatment: MLN4924 1 uM, 8 h) 5.27 ± 0.1. With QQREKLSLIRKHAQTFIALCATDF [CCND2], the protein stability index runs as follows: (treatment: DMSO) 2.25 ± 0.22; (treatment: MLN4924 1 uM, 8 h) 2.44 ± 0.13. The corresponding values for QRDVGWAALLILFAASLLTVFAWL [C2CD2L] are 2.94 ± 0.34 and 3.05 ± 0.56. As to QSIEYAGQQDQVKLHDFFSYLMDH [PPEF2], the protein stability index is, setting by setting: (treatment: DMSO) 2.94 ± 0.26; (treatment: MLN4924 1 uM, 8 h) 2.92 ± 0.49. As to QTGEWQNIAIMTEEPELSPAYLIS [GFOD1], the protein stability index amounted to 3.05 ± 0.17 (treatment: DMSO) and 3.25 ± 0.22 (treatment: MLN4924 1 uM, 8 h).

In turn, QVESRWGYSGTSDRIRFTVNRRIS [BTBD1] yielded a protein stability index (treatment: DMSO) of 3.38 ± 0.23 and a protein stability index (treatment: MLN4924 1 uM, 8 h) of 3.53 ± 0.37.
